{
  "source": "the supplement of paper PMC9112550",
  "about": "“Optimization of the antimicrobial peptide Bac7 by deep mutational scanning” (BMC Biology, 2022);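 also: peptides expressed intracellularly from a pBAD plasmid library in pooled LB shake-flask culture, induced with 0.3% L-arabinose, DNA abundance read by NGS, three biological replicates, DESeq2 with apeglm shrinkage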",
  "data": [
    {"test_system": "Escherichia coli TOP10", "assay": "shrunken log2 fold change of peptide-encoding DNA abundance (4.5 h post-induction vs induction); higher = less antimicrobial activity (less host growth inhibition)", "settings": "time post-induction: 4.5 h; library: site-saturation at positions 5, 18, 19, 20", "values": [
      {"sequence": "RRIRGRPPRLPRPRPRPKKVPRP", "shrunken log2 fold change": 0.942},
      {"sequence": "RRIRNRPPRLPRPRPRPQCDPRP", "shrunken log2 fold change": -0.282},
      {"sequence": "RRIRMRPPRLPRPRPRPCLDPRP", "shrunken log2 fold change": -0.273},
      {"sequence": "RRIRHRPPRLPRPRPRPCNAPRP", "shrunken log2 fold change": 0.0746},
      {"sequence": "RRIRWRPPRLPRPRPRPAYKPRP", "shrunken log2 fold change": -0.182},
      {"sequence": "RRIRRRPPRLPRPRPRPMNAPRP", "shrunken log2 fold change": 0.15},
      {"sequence": "RRIRFRPPRLPRPRPRPEENPRP", "shrunken log2 fold change": -0.00844},
      {"sequence": "RRIRPRPPRLPRPRPRPLQSPRP", "shrunken log2 fold change": 0.0308},
      {"sequence": "RRIRTRPPRLPRPRPRPADFPRP", "shrunken log2 fold change": 0.0361},
      {"sequence": "RRIRKRPPRLPRPRPRPKFCPRP", "shrunken log2 fold change": 0.0649},
      {"sequence": "RRIRQRPPRLPRPRPRPTDKPRP", "shrunken log2 fold change": -0.112},
      {"sequence": "RRIRTRPPRLPRPRPRPEESPRP", "shrunken log2 fold change": -0.0116},
      {"sequence": "RRIRNRPPRLPRPRPRPEHHPRP", "shrunken log2 fold change": -0.114},
      {"sequence": "RRIRHRPPRLPRPRPRPTNCPRP", "shrunken log2 fold change": -0.197},
      {"sequence": "RRIRHRPPRLPRPRPRPLDCPRP", "shrunken log2 fold change": -0.384},
      {"sequence": "RRIRLRPPRLPRPRPRPCLVPRP", "shrunken log2 fold change": 0.127},
      {"sequence": "RRIRIRPPRLPRPRPRPLEMPRP", "shrunken log2 fold change": -0.373},
      {"sequence": "RRIRQRPPRLPRPRPRPATNPRP", "shrunken log2 fold change": -0.0811},
      {"sequence": "RRIRYRPPRLPRPRPRPSNDPRP", "shrunken log2 fold change": -0.29},
      {"sequence": "RRIRGRPPRLPRPRPRPVKYPRP", "shrunken log2 fold change": 0.235},
      {"sequence": "RRIRKRPPRLPRPRPRPCLCPRP", "shrunken log2 fold change": -0.138},
      {"sequence": "RRIRERPPRLPRPRPRPSFHPRP", "shrunken log2 fold change": -0.549},
      {"sequence": "RRIRHRPPRLPRPRPRPWTVPRP", "shrunken log2 fold change": -0.217},
      {"sequence": "RRIRVRPPRLPRPRPRPSLQPRP", "shrunken log2 fold change": -0.0631},
      {"sequence": "RRIRNRPPRLPRPRPRPFRNPRP", "shrunken log2 fold change": -0.515},
      {"sequence": "RRIRVRPPRLPRPRPRPGINPRP", "shrunken log2 fold change": -0.0188},
      {"sequence": "RRIRNRPPRLPRPRPRPHHTPRP", "shrunken log2 fold change": -0.459},
      {"sequence": "RRIRFRPPRLPRPRPRPADWPRP", "shrunken log2 fold change": 0.36},
      {"sequence": "RRIRTRPPRLPRPRPRPTIGPRP", "shrunken log2 fold change": -0.000966},
      {"sequence": "RRIRIRPPRLPRPRPRPFSEPRP", "shrunken log2 fold change": -0.315},
      {"sequence": "RRIRSRPPRLPRPRPRPKTTPRP", "shrunken log2 fold change": 0.103},
      {"sequence": "RRIRPRPPRLPRPRPRPMFTPRP", "shrunken log2 fold change": -0.178},
      {"sequence": "RRIRRRPPRLPRPRPRPNCCPRP", "shrunken log2 fold change": 0.0381},
      {"sequence": "RRIRWRPPRLPRPRPRPAQHPRP", "shrunken log2 fold change": 0.363},
      {"sequence": "RRIRVRPPRLPRPRPRPQEWPRP", "shrunken log2 fold change": -0.0187},
      {"sequence": "RRIRWRPPRLPRPRPRPFSGPRP", "shrunken log2 fold change": 0.0272},
      {"sequence": "RRIRPRPPRLPRPRPRPDNYPRP", "shrunken log2 fold change": -0.496},
      {"sequence": "RRIRNRPPRLPRPRPRPPYWPRP", "shrunken log2 fold change": 0.0294},
      {"sequence": "RRIRNRPPRLPRPRPRPKDTPRP", "shrunken log2 fold change": -0.018},
      {"sequence": "RRIRIRPPRLPRPRPRPREGPRP", "shrunken log2 fold change": 0.229},
      {"sequence": "RRIRTRPPRLPRPRPRPMPCPRP", "shrunken log2 fold change": 0.159},
      {"sequence": "RRIRMRPPRLPRPRPRPAFNPRP", "shrunken log2 fold change": 0.144},
      {"sequence": "RRIRHRPPRLPRPRPRPPPGPRP", "shrunken log2 fold change": 0.769},
      {"sequence": "RRIRTRPPRLPRPRPRPGYPPRP", "shrunken log2 fold change": -0.197},
      {"sequence": "RRIRNRPPRLPRPRPRPPHIPRP", "shrunken log2 fold change": -0.311},
      {"sequence": "RRIRMRPPRLPRPRPRPPLGPRP", "shrunken log2 fold change": 1.08},
      {"sequence": "RRIRMRPPRLPRPRPRPQNSPRP", "shrunken log2 fold change": -0.0933},
      {"sequence": "RRIRVRPPRLPRPRPRPYASPRP", "shrunken log2 fold change": 0.00213},
      {"sequence": "RRIRVRPPRLPRPRPRPLGWPRP", "shrunken log2 fold change": 0.467},
      {"sequence": "RRIRHRPPRLPRPRPRPGGNPRP", "shrunken log2 fold change": 0.00148},
      {"sequence": "RRIRSRPPRLPRPRPRPPWEPRP", "shrunken log2 fold change": 0.198},
      {"sequence": "RRIRERPPRLPRPRPRPQKMPRP", "shrunken log2 fold change": -0.28},
      {"sequence": "RRIRLRPPRLPRPRPRPYGAPRP", "shrunken log2 fold change": -0.0327},
      {"sequence": "RRIRMRPPRLPRPRPRPGWWPRP", "shrunken log2 fold change": -0.026},
      {"sequence": "RRIRDRPPRLPRPRPRPPTTPRP", "shrunken log2 fold change": 0.151},
      {"sequence": "RRIRQRPPRLPRPRPRPCKAPRP", "shrunken log2 fold change": -0.218},
      {"sequence": "RRIRSRPPRLPRPRPRPKFCPRP", "shrunken log2 fold change": -0.471},
      {"sequence": "RRIRRRPPRLPRPRPRPYDDPRP", "shrunken log2 fold change": -0.577},
      {"sequence": "RRIRFRPPRLPRPRPRPRRVPRP", "shrunken log2 fold change": 0.258},
      {"sequence": "RRIRVRPPRLPRPRPRPTLDPRP", "shrunken log2 fold change": 0.125},
      {"sequence": "RRIRFRPPRLPRPRPRPYAWPRP", "shrunken log2 fold change": -0.134},
      {"sequence": "RRIRVRPPRLPRPRPRPQTTPRP", "shrunken log2 fold change": 0.213},
      {"sequence": "RRIRHRPPRLPRPRPRPPAVPRP", "shrunken log2 fold change": 0.373},
      {"sequence": "RRIRSRPPRLPRPRPRPSWRPRP", "shrunken log2 fold change": 0.0852},
      {"sequence": "RRIRPRPPRLPRPRPRPNMAPRP", "shrunken log2 fold change": 0.478},
      {"sequence": "RRIRSRPPRLPRPRPRPDQIPRP", "shrunken log2 fold change": 0.0424},
      {"sequence": "RRIRTRPPRLPRPRPRPHTCPRP", "shrunken log2 fold change": -0.0347},
      {"sequence": "RRIRGRPPRLPRPRPRPMCWPRP", "shrunken log2 fold change": 0.859},
      {"sequence": "RRIRWRPPRLPRPRPRPRQGPRP", "shrunken log2 fold change": 0.582},
      {"sequence": "RRIRARPPRLPRPRPRPCTGPRP", "shrunken log2 fold change": -0.041},
      {"sequence": "RRIRSRPPRLPRPRPRPWWMPRP", "shrunken log2 fold change": -0.0399},
      {"sequence": "RRIRDRPPRLPRPRPRPLILPRP", "shrunken log2 fold change": -0.096},
      {"sequence": "RRIRHRPPRLPRPRPRPFGWPRP", "shrunken log2 fold change": 0.0661},
      {"sequence": "RRIRCRPPRLPRPRPRPDWEPRP", "shrunken log2 fold change": -0.524},
      {"sequence": "RRIRGRPPRLPRPRPRPVQNPRP", "shrunken log2 fold change": 0.588}
    ]}
  ]
}
